Reference: patent US20090196913A1, “Anti-Alpha-V Immunoliposome Composition, Methods, and Uses” (priority 2007, published 2009)

How the values were obtained:
[1] = system: A375.S2 cells; assay: Binding and internalization at 37° C., confocal microscopy; type: cell-based, human; conditions: 37° C. for 10 min, washed, 1 hour at 37° C.
Description: These targeted-liposomes were used in the cytotoxicity assay using the various cells lines, as described below. A375.S2 cells were harvested by scraping and then resuspended to obtain individualized cells and rejuvenated for 1 hour, at 37° C. About 1 million cells of each tumor type were counted and distributed into individual centrifugation tubes. The tubes were spun to obtain a cell pellet. […] Cells were treated with the liposome formulations containing either a doxorubicin payload or a fluorescent marker (Dextran Alexa Fluor 488). Treatment was terminated by adding 1 mL of washing media (serum free), vortexing briefly, and centrifuging to recover a cell pellet The cells in the pellet were resuspend in washing media, vigorously shaken for 10 minutes at 37° C. and then centrifuged again (440 rpm). The cell pellet was left in 100 μL of media, an aliquot of 8 μL was taken and placed on a glass slide for observation under a confocal microscope.

[2] = target: T1, integrin αvβ3 (Homo sapiens, UniProt P06756); assay: scFv binding ELISA on integrin-coated plates; conditions: detected by HRP anti-His Ab and anti-CNTO95 Ab (c508)
T1 construct: purchased Chemicon International Inc
T1 sequence (P06756 31-889 limits assumed): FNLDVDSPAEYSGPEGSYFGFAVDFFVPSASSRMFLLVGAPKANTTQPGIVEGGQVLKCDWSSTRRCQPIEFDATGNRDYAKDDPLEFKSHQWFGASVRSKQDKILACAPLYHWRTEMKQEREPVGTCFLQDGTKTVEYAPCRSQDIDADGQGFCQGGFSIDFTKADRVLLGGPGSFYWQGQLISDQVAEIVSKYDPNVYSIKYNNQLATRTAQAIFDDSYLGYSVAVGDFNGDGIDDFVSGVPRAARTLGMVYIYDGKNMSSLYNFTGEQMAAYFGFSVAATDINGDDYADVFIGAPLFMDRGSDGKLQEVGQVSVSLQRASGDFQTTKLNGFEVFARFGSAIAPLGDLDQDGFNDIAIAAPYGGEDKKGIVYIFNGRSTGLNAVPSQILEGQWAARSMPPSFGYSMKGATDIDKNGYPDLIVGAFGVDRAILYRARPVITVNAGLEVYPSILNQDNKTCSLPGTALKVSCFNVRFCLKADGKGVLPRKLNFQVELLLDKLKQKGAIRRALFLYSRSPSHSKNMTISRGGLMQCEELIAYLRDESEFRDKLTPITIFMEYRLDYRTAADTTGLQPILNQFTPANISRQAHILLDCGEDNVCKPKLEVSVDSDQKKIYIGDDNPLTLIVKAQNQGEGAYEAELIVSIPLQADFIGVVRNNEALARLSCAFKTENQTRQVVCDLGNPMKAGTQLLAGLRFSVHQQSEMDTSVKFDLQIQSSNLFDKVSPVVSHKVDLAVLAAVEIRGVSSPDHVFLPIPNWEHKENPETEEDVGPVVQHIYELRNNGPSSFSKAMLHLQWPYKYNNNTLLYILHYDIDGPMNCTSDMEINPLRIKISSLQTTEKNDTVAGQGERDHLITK
T1 sequence (P06756 891-1048 partner limits assumed): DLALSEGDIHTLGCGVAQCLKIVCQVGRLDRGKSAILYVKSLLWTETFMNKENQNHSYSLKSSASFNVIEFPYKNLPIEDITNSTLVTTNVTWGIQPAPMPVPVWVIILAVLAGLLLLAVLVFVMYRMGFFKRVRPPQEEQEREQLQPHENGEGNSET
T1 sequence (P05106 27-788 partner): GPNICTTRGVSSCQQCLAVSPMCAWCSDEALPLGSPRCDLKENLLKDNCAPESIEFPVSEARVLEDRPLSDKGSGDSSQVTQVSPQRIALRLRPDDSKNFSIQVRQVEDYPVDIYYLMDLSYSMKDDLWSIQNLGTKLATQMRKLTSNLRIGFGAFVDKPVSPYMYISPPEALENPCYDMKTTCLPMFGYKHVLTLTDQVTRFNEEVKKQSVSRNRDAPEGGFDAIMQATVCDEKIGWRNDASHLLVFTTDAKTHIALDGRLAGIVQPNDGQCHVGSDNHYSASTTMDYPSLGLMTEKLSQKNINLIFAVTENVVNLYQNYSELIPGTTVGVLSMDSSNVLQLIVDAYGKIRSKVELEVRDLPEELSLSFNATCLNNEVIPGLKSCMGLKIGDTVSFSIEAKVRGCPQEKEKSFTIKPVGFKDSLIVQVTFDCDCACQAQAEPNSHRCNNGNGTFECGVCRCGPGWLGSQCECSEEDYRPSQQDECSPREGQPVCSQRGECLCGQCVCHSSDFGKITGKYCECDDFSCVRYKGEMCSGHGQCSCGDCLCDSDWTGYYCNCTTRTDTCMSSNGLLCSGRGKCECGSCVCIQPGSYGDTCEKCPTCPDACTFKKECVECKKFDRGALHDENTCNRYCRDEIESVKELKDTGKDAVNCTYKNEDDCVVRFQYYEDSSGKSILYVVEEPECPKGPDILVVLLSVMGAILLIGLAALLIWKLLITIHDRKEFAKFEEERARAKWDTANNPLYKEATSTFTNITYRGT
Description: (§1) The binding affinity of scFv CNTO95 was measured using a validated sandwich enzyme-linked immunoassay. The 96-well plates (Coasta, high binding plate) were coated with 100 ul of integrin αvβ3 or αvβ5 (Chemicon International Inc ) at 1 ug/ml in coating buffer (0.75 g Na2CO3 and 1.45 g NaHCO3 in 500 ml H2O) and incubated overnight at 4° C. The plates were blocked with Superblock blocking buffer in PBS (Pierce) at room temperature for 1 hr. Wells were washed with PBS+0.05% Tween 20 between each step. Controls and scFv purified protein were diluted serially at 3-fold with TBST, and added to the coated wells in duplicate, and incubated at 37° C. for 2 hrs. Two methods were used to detect the binding. For anti-his ELISA 1:1000 diluted HRP mouse anti-his antibody were added to each well and incubated for 1 hr. For the anti-CNTO95 anti-idiotype ELISA, an aliquot of 1:1000 diluted 1 mg/ml C508 antibody was added to each well and incubated for 1 hr. […]
(§2) The Elisa was developed using OPD tablet (Sigma) in development buffer for 15 min at room temperature. […] The binding affinity was measured in a plate reader at 490 nm. In the assay, purified CNTO95 scFv protein from E. coli bound both αvβ3 and αvβ5 integrin proteins (FIG. 14) as shown for integrin-coated ELISA plates and was detected by HRP anti-His Ab as well as the anti-CNTO95 Ab (c508).

[3] = target: T2, integrin αvβ5 (Homo sapiens, UniProt P06756); assay: scFv binding ELISA on integrin-coated plates; conditions: detected by HRP anti-His Ab and anti-CNTO95 Ab (c508)
T2 construct: purchased Chemicon International Inc
T2 sequence (P06756 31-889 limits assumed): as the sequence (P06756 31-889 limits assumed) above
T2 sequence (P06756 891-1048 partner limits assumed): as the sequence (P06756 891-1048 partner limits assumed) above
T2 sequence (P18084 24-799 partner): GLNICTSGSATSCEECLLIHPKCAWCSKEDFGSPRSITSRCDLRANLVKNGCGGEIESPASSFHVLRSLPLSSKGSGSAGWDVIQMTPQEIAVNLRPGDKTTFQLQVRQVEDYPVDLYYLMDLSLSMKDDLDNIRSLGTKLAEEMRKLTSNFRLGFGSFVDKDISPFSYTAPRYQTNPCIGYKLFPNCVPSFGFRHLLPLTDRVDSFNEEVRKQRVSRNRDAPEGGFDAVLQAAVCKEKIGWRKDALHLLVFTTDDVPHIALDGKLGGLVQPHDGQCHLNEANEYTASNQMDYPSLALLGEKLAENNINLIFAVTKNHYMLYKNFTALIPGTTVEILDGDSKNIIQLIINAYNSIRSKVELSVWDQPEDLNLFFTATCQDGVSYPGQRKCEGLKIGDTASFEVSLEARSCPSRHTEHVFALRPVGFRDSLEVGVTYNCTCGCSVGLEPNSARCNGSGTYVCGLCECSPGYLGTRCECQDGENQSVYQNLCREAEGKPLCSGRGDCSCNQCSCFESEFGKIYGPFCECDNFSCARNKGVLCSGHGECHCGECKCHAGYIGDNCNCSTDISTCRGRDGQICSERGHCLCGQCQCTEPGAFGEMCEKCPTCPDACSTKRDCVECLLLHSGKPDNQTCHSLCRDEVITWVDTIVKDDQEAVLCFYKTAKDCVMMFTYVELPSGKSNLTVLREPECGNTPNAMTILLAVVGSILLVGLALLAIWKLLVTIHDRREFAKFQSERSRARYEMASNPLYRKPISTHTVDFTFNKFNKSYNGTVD
Description: as §1, §2

[4] = target: T1, integrin αvβ3; assay: scFv vs Mab integrin competition assay; type: binding; conditions: αvβ3 coated plate, CNTO95 mAb at 0.8 nM
Description: (§3) To compare the binding affinity of scFv CNTO95 and CNTO 95 mAb, the 96-well plates were coated with 100 ul of integrin αvβ3 or αvβ5 as described above. CNTO95 mAb was added to each well at 0.8 nM for αvβ3 coated plate or 0.2 nM for αvβ5 coated plate. Controls and scFv purified protein diluted serially at 3-fold with TBST were added to the coated wells in duplicate. The mix of CNTO95 mAb and sFv were incubated at 37° C. for 2 hrs. The detection antibody was 1:10K dilution of peroxidase conjugated affinipure F(ab′)2 fragment Goat anti-human IgG, Fc fragment specific (minimal cross reaction to Bovine, Horse and mouse serum protein) (Jackson Immunoresearch ). The antibody was incubated on the plate 1 hr at 37° C. and the color was developed and read as above. CNTO95 mAb binding to both alpha-V-integrins was competed with the […] (FIGS. 15A and B).

[5] = target: T2, integrin αvβ5; assay: scFv vs Mab integrin competition assay; type: binding; conditions: αvβ5 coated plate, CNTO95 mAb at 0.2 nM
Description: as §3

| binding to integrin-coated ELISA plates [2] | binding to integrin-coated ELISA plates [3] | competition with CNTO95 mAb for integrin binding [4] | competition with CNTO95 mAb for integrin binding [5] | Compound | binding and internalization (confocal microscopy) [1] |
| --- | --- | --- | --- | --- | --- |
|  |  |  |  | COc1cccc2c1C(=O)c1c(O)c3c(c(O)c1C2=O)C[C@@](O)(C(=O)CO)C[C@@H]3O[C@H]1C[C@H](N)[C@H](O)[C@H](C)O1 [free dox, doxorubicin] | drug internalization is evident |
| bound | bound | effectively competes | effectively competes | CNTO95 scFv: single chain variable fragment of CNTO 95, VH-(Gly4Ser)3-VL, R18L, 6×His tag and Gly4Cys (SEQ ID NO: 4) |  |
